Drawing on publication PMC7267776, this text covers stoichiometry N for 1 substance.

The target in the test is AcrB (from pET21a-acrBΔHis) (E. coli) (UniProt P31224). The test can be described thus: cryo-EM structure; AcrB/DARPin and AcrBZ/DARPin reconstituted in saposin A discs with E. coli lipids, with or without additional 5% cardiolipin; 20 mM Tris-Cl pH 7.5, 150 mM NaCl; 2 mM minocycline (AcrB) or 1 mM chloramphenicol (AcrBZ) added.

In general, stoichiometry N refers to a count of units in the complex or per binding partner.

The substance “AcrB (from pET21a-acrBΔHis) (from UniProt P31224) (natural protein)” displayed a stoichiometry N of 3.
